A short description of the data set: self-splicing fitness, log relative to wild type (ln ratio); higher = more splicing; Tetrahymena group I intron in knt gene, E. coli kanamycin selection, DiMSum; sequences stand for … in CUCUCU…GGAGGGAAAAGUUAUCAGGCAUGCACCUGGUAGCUAGUCUUUAAACCAAUAGAUUGCAUCGGUUUAAAAGGCAAGACCGUCAAAUUGCGGGAAAGGGGUCAACAGCCGUUCAGUACCAAGUCUCAGGGGAAACUUUGAGAUGGCCUUGCAAAGGGUAUGGUAAUAAGCUGACGGACAUGGUCCUAACCACGCAGCCAAGUCCUAAGUCAACAGAUCUUCUGUUGAUAUGGAUGCAGUUCACAGACUAAAUGUCGGUCGGGGAAGAUGUAUUCUUCUCAUAAGAUAUAGUCGGACCUCUCCUUAAUGGGAGCUAGCGGAUGAAGUGAUGCAACACUGGAGCCGCUGGGAACUAAUUUGUAUGCGAAAGUAUAUUGAUUAGUUUUGGAGUACUCGUGGUCG
The procedure, abridged:
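Six replicate transformations of E. coli BL21(DE3) with a pET-22b(+) library were grown overnight at 37°C or 30°C. The library randomised all eight P1ex-region intron nucleotides, the intron lying in the knt kanamycin-resistance gene, and plates were LB agar with or without 25 μg/mL kanamycin plus 100 μg/mL carbenicillin, 50 μM IPTG and 0.2% rhamnose. Pooled colonies were amplicon-sequenced on an Illumina HiSeq 2500, and fitness is the DiMSum error-weighted combination of wild-type-normalised replicate fold changes, kanamycin versus none.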

± gives the uncertainty stated by the source.

In the case of UAUGAGCAAUAUUACGUCCC, the “self-splicing fitness (ln)” value (30 °C) is -2.74 ± 0.49.
UAUGAGCAAUAUUACGUGGC: the “self-splicing fitness (ln)” value is, setting by setting: (30 °C) -3.07 ± 0.2; (37 °C) -2.52 ± 0.46.
As to UAUUAGCAAUAUUACGAAAA, the “self-splicing fitness (ln)” value is, setting by setting: (30 °C) -1.68 ± 0.26; (37 °C) -1.2 ± 0.26.
For the sequence UAUUAGCAAUAUUACGAAAU, the “self-splicing fitness (ln)” value was -2.46 ± 0.35 (30 °C) and -1.53 ± 0.43 (37 °C).
Taken in the same sequence, the figures for UAUUAGCAAUAUUACGACCA were -0.42 ± 0.18 and -0.894 ± 0.19.
For UAUUAGCAAUAUUACGAGGC, the “self-splicing fitness (ln)” value (37 °C) was -0.205 ± 0.23.
Take UAUUAGCAAUAUUACGAGGU: the “self-splicing fitness (ln)” value (30 °C) was -2.64 ± 0.24 and the “self-splicing fitness (ln)” value (37 °C) was -2.27 ± 0.35.
The matching figures for UAUUAGCAAUAUUACGAUAU: -3.81 ± 0.26 and -2.11 ± 0.2.
As for UAUUAGCAAUAUUACGCCAC, where the note is “37 °C”, the “self-splicing fitness (ln)” value is -0.751 ± 0.48.
On the same count and under the same terms, with UAUUAGCAAUAUUACGCGAU the figure was -2.15 ± 0.38.
Take UAUUAGCAAUAUUACGCUCA: the “self-splicing fitness (ln)” value (30 °C) was found to be 0.0548 ± 0.15 and the “self-splicing fitness (ln)” value (37 °C) was 0.336 ± 0.17.
Taken in the same sequence, the figures for UAUUAGCAAUAUUACGGGGG were -4.15 ± 0.46 and -2.75 ± 0.34.
On to UAUUAGCAAUAUUACGGUCU, for which the “self-splicing fitness (ln)” value was -2.66 ± 0.23 (30 °C) and -1.57 ± 0.32 (37 °C).
Taken in the same sequence, the figures for UAUUAGCAAUAUUACGGUGC were -3.77 ± 0.3 and -1.84 ± 0.23.
The matching figures for UAUUAGCAAUAUUACGGUGU: -3.01 ± 0.25 and -2.7 ± 0.3.
UAUUAGCAAUAUUACGUCAA: the “self-splicing fitness (ln)” value is, setting by setting: (30 °C) -1.86 ± 0.21; (37 °C) -1.34 ± 0.24.
The matching figures for UAUUAGCAAUAUUACGUCUA: -0.265 ± 0.091 and 0.324 ± 0.12.
Taken in the same sequence, the figures for UAUUAGCAAUAUUACGUUGA were -3.32 ± 0.29 and -2.17 ± 0.23.
With UAUUAGCAAUAUUACGUUUG, the “self-splicing fitness (ln)” value by setting is: (30 °C) -2.12 ± 0.12; (37 °C) -0.749 ± 0.13.
The matching figures for UCAAAGCAAUAUUACGAAAG: -3.84 ± 0.31 and -1.43 ± 0.18.
Turning to UCAAAGCAAUAUUACGACAA, the “self-splicing fitness (ln)” value was -1.96 ± 0.19 (30 °C) and -1.22 ± 0.14 (37 °C).
Taken in the same sequence, the figures for UCAAAGCAAUAUUACGACAG were -2.66 ± 0.14 and -1.25 ± 0.14.
Taken in the same sequence, the figures for UCAAAGCAAUAUUACGACAU were -3.633 ± 0.023 and -2.37 ± 0.036.
The matching figures for UCAAAGCAAUAUUACGACGC: -3.24 ± 0.16 and -2.09 ± 0.14.
In the case of UCAAAGCAAUAUUACGACUC, the “self-splicing fitness (ln)” value runs as follows: (30 °C) -2.99 ± 0.38; (37 °C) -0.37 ± 0.23.
Consider UCAAAGCAAUAUUACGAGAG, for which the “self-splicing fitness (ln)” value runs as follows: (30 °C) -3.08 ± 0.2; (37 °C) -2.21 ± 0.21.
The matching figures for UCAAAGCAAUAUUACGAGAU: -4.03 ± 0.33 and -1.91 ± 0.2.
Consider UCAAAGCAAUAUUACGCAAA, for which the “self-splicing fitness (ln)” value (30 °C) was -2.5 ± 0.23 and the “self-splicing fitness (ln)” value (37 °C) was -2.19 ± 0.31.
The matching figures for UCAAAGCAAUAUUACGCAAU: -5.01 ± 0.34 and -2.79 ± 0.21.
In the case of UCAAAGCAAUAUUACGCCUC, the “self-splicing fitness (ln)” value (37 °C) is -1.91 ± 0.37.
UCAAAGCAAUAUUACGCGCC: the “self-splicing fitness (ln)” value by setting is: (30 °C) -2.36 ± 0.24; (37 °C) -1.24 ± 0.28.
Taken in the same sequence, the figures for UCAAAGCAAUAUUACGCUCA were -0.864 ± 0.15 and -0.428 ± 0.19.
In the case of UCAAAGCAAUAUUACGCUGG, the “self-splicing fitness (ln)” value is -3.55 ± 0.37 (30 °C) and -2.28 ± 0.33 (37 °C).
The matching figures for UCAAAGCAAUAUUACGGAUA: -3.12 ± 0.18 and -1.94 ± 0.14.
The matching figures for UCAAAGCAAUAUUACGGCGC: -1.8 ± 0.1 and -1.41 ± 0.13.
The matching figures for UCAAAGCAAUAUUACGGGCU: -2.34 ± 0.11 and -2.55 ± 0.14.
With UCAAAGCAAUAUUACGGGUU, the “self-splicing fitness (ln)” value (30 °C) is -3.13 ± 0.15 and the “self-splicing fitness (ln)” value (37 °C) was -2.59 ± 0.15.
Taken in the same sequence, the figures for UCAAAGCAAUAUUACGGUUA were -1.04 ± 0.092 and -0.132 ± 0.087.
Take UCAAAGCAAUAUUACGUAGU: the “self-splicing fitness (ln)” value is, setting by setting: (30 °C) -3.63 ± 0.21; (37 °C) -1.69 ± 0.17.
Taken in the same sequence, the figures for UCAAAGCAAUAUUACGUCAC were -3.89 ± 0.36 and -3.01 ± 0.4.
Taken in the same sequence, the figures for UCAAAGCAAUAUUACGUCGG were -0.93 ± 0.056 and -0.055 ± 0.079.
For the sequence UCAAAGCAAUAUUACGUCUU, the “self-splicing fitness (ln)” value was -4.01 ± 0.18 (30 °C) and -3.03 ± 0.17 (37 °C).
Taken in the same sequence, the figures for UCAAAGCAAUAUUACGUGAG were -0.64 ± 0.046 and -0.25 ± 0.071.
Taken in the same sequence, the figures for UCAAAGCAAUAUUACGUGCA were -0.542 ± 0.048 and 0.0292 ± 0.065.
On to UCAAAGCAAUAUUACGUUCU, for which the “self-splicing fitness (ln)” value is, setting by setting: (30 °C) -3.76 ± 0.26; (37 °C) -2.87 ± 0.22.
As for UCACAGCAAUAUUACGAAUA, the “self-splicing fitness (ln)” value (30 °C) was -2.68 ± 0.14 and the “self-splicing fitness (ln)” value (37 °C) was -1.44 ± 0.11.
Taken in the same sequence, the figures for UCACAGCAAUAUUACGACCG were -0.795 ± 0.11 and 0.149 ± 0.12.
The matching figures for UCACAGCAAUAUUACGACGU: -3.44 ± 0.16 and -3.53 ± 0.26.
Taken in the same sequence, the figures for UCACAGCAAUAUUACGAGGU were -4.27 ± 0.36 and -2.54 ± 0.22.
With UCACAGCAAUAUUACGCAAC, where the note is “37 °C”, the “self-splicing fitness (ln)” value was -3.26 ± 0.39.
Consider UCACAGCAAUAUUACGCACC, for which, under “30 °C”, the “self-splicing fitness (ln)” value was -2.35 ± 0.3.
As for UCACAGCAAUAUUACGCACU, the “self-splicing fitness (ln)” value by setting is: (30 °C) -2.56 ± 0.17; (37 °C) -2.8 ± 0.24.
Taken in the same sequence, the figures for UCACAGCAAUAUUACGCAGC were -3.29 ± 0.2 and -2.62 ± 0.25.
The matching figures for UCACAGCAAUAUUACGGAAG: -3.85 ± 0.23 and -2.3 ± 0.17.
UCACAGCAAUAUUACGGACC: for the setting “37 °C”, the “self-splicing fitness (ln)” value was -2.14 ± 0.29.
As for UCACAGCAAUAUUACGGCAA, the “self-splicing fitness (ln)” value is -1.38 ± 0.1 (30 °C) and -1.42 ± 0.097 (37 °C).
The matching figures for UCACAGCAAUAUUACGGCGG: -0.848 ± 0.056 and 0.0491 ± 0.078.
The matching figures for UCACAGCAAUAUUACGGGGC: -4.05 ± 0.21 and -2.4 ± 0.15.
Taken in the same sequence, the figures for UCACAGCAAUAUUACGGUAU were -3.42 ± 0.19 and -3.05 ± 0.18.
For the sequence UCACAGCAAUAUUACGGUGC, the “self-splicing fitness (ln)” value runs as follows: (30 °C) -3.04 ± 0.18; (37 °C) -1.47 ± 0.14.
The matching figures for UCACAGCAAUAUUACGUAAC: -3.69 ± 0.12 and -2.79 ± 0.14.
Taken in the same sequence, the figures for UCACAGCAAUAUUACGUCGU were -3.62 ± 0.19 and -1.49 ± 0.22.
Taken in the same sequence, the figures for UCACAGCAAUAUUACGUCUG were -3.02 ± 0.13 and -0.735 ± 0.11.
In the case of UCACAGCAAUAUUACGUGGA, the “self-splicing fitness (ln)” value runs as follows: (30 °C) -2.51 ± 0.095; (37 °C) -2.36 ± 0.1.
Regarding UCACAGCAAUAUUACGUGGC, the “self-splicing fitness (ln)” value (30 °C) is -3.08 ± 0.18 and the “self-splicing fitness (ln)” value (37 °C) is -2.83 ± 0.26.
On to UCACAGCAAUAUUACGUUUU, for which the “self-splicing fitness (ln)” value (30 °C) is -3.72 ± 0.14 and the “self-splicing fitness (ln)” value (37 °C) is -3.09 ± 0.15.
Taken in the same sequence, the figures for UCAGAGCAAUAUUACGAAUA were -2.84 ± 0.32 and -2.14 ± 0.38.
Taken in the same sequence, the figures for UCAGAGCAAUAUUACGAAUG were -1.78 ± 0.24 and -2.76 ± 0.38.
UCAGAGCAAUAUUACGAGCC: the “self-splicing fitness (ln)” value (37 °C) is -2.18 ± 0.4.
Turning to UCAGAGCAAUAUUACGAGGG, the “self-splicing fitness (ln)” value (30 °C) is -2.95 ± 0.16 and the “self-splicing fitness (ln)” value (37 °C) was -1.94 ± 0.16.
Taken in the same sequence, the figures for UCAGAGCAAUAUUACGAGGU were -3 ± 0.29 and -2.5 ± 0.32.
The matching figures for UCAGAGCAAUAUUACGAGUA: -3.89 ± 0.46 and -1.01 ± 0.14.
The matching figures for UCAGAGCAAUAUUACGAGUC: -3.39 ± 0.35 and -3.09 ± 0.21.
With UCAGAGCAAUAUUACGAUGC, the “self-splicing fitness (ln)” value by setting is: (30 °C) -3.8 ± 0.32; (37 °C) -1.68 ± 0.24.
Consider UCAGAGCAAUAUUACGCAUA, for which the “self-splicing fitness (ln)” value (30 °C) is -3.19 ± 0.42.
On to UCAGAGCAAUAUUACGCAUG, for which the “self-splicing fitness (ln)” value runs as follows: (30 °C) -3.13 ± 0.3; (37 °C) -2.02 ± 0.21.
Taken in the same sequence, the figures for UCAGAGCAAUAUUACGCCAG were -2.62 ± 0.3 and -0.0811 ± 0.28.
The matching figures for UCAGAGCAAUAUUACGCCGA: -3.18 ± 0.33 and -1.63 ± 0.23.

Source of the values: the supplement of paper PMC7877785.
